This is an account of results in article PMC12311017.

In this experiment the target is USP1/UAF1 (USP1 res. 21-785, G670A + G671A, with UAF1 res. 9-677) (UniProt O94782). Kind of experiment: global kinetic model.
Chain of UniProt O94782 (O94782 21-785 G670A/G671A, chain 1 of 2): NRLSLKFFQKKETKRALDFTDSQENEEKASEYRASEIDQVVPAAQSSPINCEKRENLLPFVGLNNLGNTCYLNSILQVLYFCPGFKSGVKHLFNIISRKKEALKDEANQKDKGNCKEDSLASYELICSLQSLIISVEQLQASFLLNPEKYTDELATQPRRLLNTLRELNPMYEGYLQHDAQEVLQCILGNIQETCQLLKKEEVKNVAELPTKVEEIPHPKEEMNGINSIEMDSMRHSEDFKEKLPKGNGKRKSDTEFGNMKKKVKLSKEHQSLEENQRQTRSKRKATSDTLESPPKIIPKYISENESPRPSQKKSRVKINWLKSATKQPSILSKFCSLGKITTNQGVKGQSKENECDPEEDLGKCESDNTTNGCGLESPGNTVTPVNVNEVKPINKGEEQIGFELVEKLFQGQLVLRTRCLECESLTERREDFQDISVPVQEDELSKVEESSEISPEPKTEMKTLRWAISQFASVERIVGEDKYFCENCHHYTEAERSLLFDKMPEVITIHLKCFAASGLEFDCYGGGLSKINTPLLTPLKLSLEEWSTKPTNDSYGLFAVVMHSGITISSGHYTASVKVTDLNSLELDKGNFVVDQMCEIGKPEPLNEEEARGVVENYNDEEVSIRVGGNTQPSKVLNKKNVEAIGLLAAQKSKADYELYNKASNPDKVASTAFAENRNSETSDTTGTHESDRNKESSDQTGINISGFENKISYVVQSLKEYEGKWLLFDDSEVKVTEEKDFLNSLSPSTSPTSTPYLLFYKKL
Chain of UniProt O94782 (Q8TAF3 9-677, chain 2 of 2, further chain): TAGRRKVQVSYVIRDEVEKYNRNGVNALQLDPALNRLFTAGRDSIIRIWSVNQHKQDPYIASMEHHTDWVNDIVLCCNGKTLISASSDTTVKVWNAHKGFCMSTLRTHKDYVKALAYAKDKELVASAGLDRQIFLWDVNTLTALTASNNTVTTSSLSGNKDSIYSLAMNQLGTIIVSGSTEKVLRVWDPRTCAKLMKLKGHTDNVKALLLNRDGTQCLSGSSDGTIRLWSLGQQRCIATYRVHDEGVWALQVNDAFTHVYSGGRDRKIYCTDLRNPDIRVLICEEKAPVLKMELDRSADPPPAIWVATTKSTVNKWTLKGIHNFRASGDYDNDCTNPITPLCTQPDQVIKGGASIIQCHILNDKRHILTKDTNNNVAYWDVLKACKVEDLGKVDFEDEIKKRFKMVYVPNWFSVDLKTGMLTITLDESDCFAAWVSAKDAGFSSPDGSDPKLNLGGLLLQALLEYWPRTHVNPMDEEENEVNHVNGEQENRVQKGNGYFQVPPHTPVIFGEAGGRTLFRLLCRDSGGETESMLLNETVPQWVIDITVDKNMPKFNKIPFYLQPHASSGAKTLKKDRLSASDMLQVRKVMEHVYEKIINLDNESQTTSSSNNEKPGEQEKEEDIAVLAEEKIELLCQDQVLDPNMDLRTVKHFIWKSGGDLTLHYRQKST

A word on the koff: it is the rate constant with which the complex falls apart. For the substance “K63-linked diubiquitinated PCNA (from UniProt P12004 1-261; P0CG47 1-76; P0CG47 1-76) (complex)”, the koff is 1240 s⁻¹.
